From US20210079071A1 (published 2021)
Positions count from the first letter of the chain named. Like-named read-outs stand apart in the source and are kept apart here.

B1: GMA-2105 murine anti-staphylocoagulase monoclonal antibody (antibody, V domains shown)
VH: EVKLEESGGGLVQPGGSMKLSCAASGFTFSDAWMDWVRQSPEKGLEWVAEIRTKANNHATYYAESVKGRFTISRDDSKSSVYLQMNSLRAEDTGIYYCTNVYYGNNDVKDYWGQGTSVTVSP
VL: DIVMTQSQKFMSTSVGDRVSVTCKASQNVDIYVAWYQQKPGQSPKALIYSASYRFSGVPDRFTGSGSGTDFTLSISNVQSEDLAEYFCQQYNNYPYTFGGGTKLEIKR
notes: also called 2A1.5H4.B7; anti-SC Ab
B2: Chimeric GMA-2105 (mouse variable regions on human constant regions) (antibody, V domains shown)
VH: B1 VH
VL: B1 VL
B3: GMA-2500 murine anti-vWbp monoclonal antibody (antibody, V domains shown)
VH: EVQLQQSGTVLARPGASVKMSCKTSGYSFTSYWIHWVKQRPGQGLEWIGAISPGNSDTNYNQNFKGKAKLTAVTSASTAYMELSSLTTEDSAVYYCATGSHYWGQGTTLSVSS
VL: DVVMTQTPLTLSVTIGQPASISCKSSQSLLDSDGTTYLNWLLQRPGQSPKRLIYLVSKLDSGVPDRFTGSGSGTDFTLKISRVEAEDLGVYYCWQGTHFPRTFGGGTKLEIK
notes: also called 10C9.D1.B6

Legend:
[1] = molecular target: T1, BODIPY-labeled staphylocoagulase SC (S7C)(1-325) (Staphylococcus aureus, UniProt P17855 27-351)
T1 sequence: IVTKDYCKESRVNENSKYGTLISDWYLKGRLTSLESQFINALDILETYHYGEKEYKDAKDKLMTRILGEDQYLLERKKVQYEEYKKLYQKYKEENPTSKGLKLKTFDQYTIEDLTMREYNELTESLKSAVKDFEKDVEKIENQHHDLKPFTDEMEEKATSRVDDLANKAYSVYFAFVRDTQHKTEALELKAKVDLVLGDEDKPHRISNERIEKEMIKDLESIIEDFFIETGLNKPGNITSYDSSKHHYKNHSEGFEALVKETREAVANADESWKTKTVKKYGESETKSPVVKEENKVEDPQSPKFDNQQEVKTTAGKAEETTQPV

[2] = molecular target: T2, Staphylocoagulase fragment SC(1-246), unlabeled (Staphylococcus aureus, UniProt P17855 27-272)
T2 sequence: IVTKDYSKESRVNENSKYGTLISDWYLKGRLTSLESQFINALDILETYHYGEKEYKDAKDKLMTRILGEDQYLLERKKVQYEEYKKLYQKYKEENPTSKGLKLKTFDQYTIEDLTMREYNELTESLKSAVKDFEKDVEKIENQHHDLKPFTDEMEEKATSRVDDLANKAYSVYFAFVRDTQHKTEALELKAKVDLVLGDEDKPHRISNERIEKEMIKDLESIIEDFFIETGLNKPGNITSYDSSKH

[3] = molecular target: Mutated Peptide Ala 8 & 9 (Staphylococcus aureus); test: solid phase competitive inhibition ELISA
[4] = molecular target: Mutated Peptide Ala 8 (Staphylococcus aureus); test: solid phase competitive inhibition ELISA
[5] = molecular target: Mutated Peptide Ala 9 (Staphylococcus aureus); test: solid phase competitive inhibition ELISA
[6] = molecular target: T1, BODIPY-labeled staphylocoagulase SC …; test: fluorescence titration of BODIPY-SC(S7C)(1-325) with GMA-2105
[7] = molecular target: T1, BODIPY-labeled staphylocoagulase SC …; test: equilibrium titration in solution, increase in BODIPY fluorescence
[8] = molecular target: T3, vWbp-(1-474) (Staphylococcus aureus); test: Western blot of recombinant proteins, probed with GMA-2105
T3 chain: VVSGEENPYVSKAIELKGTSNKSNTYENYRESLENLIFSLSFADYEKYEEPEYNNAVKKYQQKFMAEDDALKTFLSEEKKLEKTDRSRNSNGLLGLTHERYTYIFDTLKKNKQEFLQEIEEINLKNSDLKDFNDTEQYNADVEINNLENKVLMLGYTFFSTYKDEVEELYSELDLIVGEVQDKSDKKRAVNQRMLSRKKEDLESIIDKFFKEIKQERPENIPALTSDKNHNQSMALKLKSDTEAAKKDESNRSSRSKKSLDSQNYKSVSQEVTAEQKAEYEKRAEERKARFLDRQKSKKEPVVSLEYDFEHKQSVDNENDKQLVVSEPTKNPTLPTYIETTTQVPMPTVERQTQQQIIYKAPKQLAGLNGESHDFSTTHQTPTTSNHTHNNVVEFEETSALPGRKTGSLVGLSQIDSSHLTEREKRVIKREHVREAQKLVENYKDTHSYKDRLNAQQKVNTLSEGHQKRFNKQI

[9] = molecular target: T4, vWbp-(1-263) (Staphylococcus aureus); test: as above
T4 chain: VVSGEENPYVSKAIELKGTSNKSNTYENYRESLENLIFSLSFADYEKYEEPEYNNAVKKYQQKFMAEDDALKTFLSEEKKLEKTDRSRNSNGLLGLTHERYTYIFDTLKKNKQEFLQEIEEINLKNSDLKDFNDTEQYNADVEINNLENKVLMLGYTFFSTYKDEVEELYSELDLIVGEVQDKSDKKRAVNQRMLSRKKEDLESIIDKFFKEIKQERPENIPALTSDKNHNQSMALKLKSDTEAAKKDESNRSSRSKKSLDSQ

[10] = molecular target: T1, BODIPY-labeled staphylocoagulase SC …; test: fit of the fluorescence titrations; row 'Probe SC(1-246) S7C-BodipyFL'
[11] = molecular target: T1, BODIPY-labeled staphylocoagulase SC …; test: equilibrium titration in solution, increase in BODIPY fluorescence, quadratic binding equation
[12] = molecular target: T2, Staphylocoagulase fragment SC(1-246), …; test: competitive displacement of BODIPY-labeled staphylocoagulase from GMA-2105 in solution, fluorescence
[13] = molecular target: T5, SC-(1-325), unlabeled (Staphylococcus aureus, UniProt P17855 27-351); test: Western blot of recombinant proteins; by the text, primary antibody at 10 µg/mL, HRP anti-mouse IgG, chemiluminescence
T5 sequence: T1 sequence with C7S
Source text: The elaborated proteins were transferred to PVDF membrane for western blot analysis to probe the specificity and cross-reactivity of the monoclonal antibodies targeting the critical N-termini of either SC or vWbp. […] Following primary antibody treatment, blots were washed and probed with horseradish peroxidase-labeled rabbit anti-mouse IgG that lacked the constant region and then imaged for chemiluminescence substrate oxidation using a Fuji-Films LAS1000. The blot was stripped between primary antibody challenges. […] To accomplish this, the blot was probed with the both the SC and vWbp neutralizing antibodies and then stained for total mouse IgG content using an anti-mouse IgG (H+L)-FITC polyclonal antibody.

[14] = molecular target: T1, BODIPY-labeled staphylocoagulase SC …; test: fluorescence titration of BODIPY-labeled SC(1-325) with chimeric GMA-2105
[15] = molecular target: vWbp peptide vWbp(1-12), […], unconjugated (Staphylococcus aureus); test: ELISA, unconjugated peptide
[16] = molecular target: vWbp peptide vWbp(1-12) conjugated to ovalbumin (Staphylococcus aureus); test: ELISA: purified GMA-2500 on vWbp peptide-ovalbumin, A490
[17] = molecular target: T4, vWbp-(1-263); test: ELISA: purified GMA-2500 on the preparation 'vWbp 1-263 022109, RIF 0540E', A490
[18] = molecular target: T4, vWbp-(1-263); test: ELISA: purified GMA-2500 on the preparation 'vWbp 1-263 WT 011113, RIF0540D', A490

| Binder | Kd [1] | Kd [2] | Stoichiometry (mol mAb / mol wild type) [2] | binding result [3] | binding result [4] | binding result [5] | stoichiometry [6] | stoichiometry [7] | binding result [8] | binding result [9] | Kd [10] | Stoichiometry (mol mAb / mol probe) [10] | Kd [11] | Kd [12] | binding result [13] | stoichiometry [14] | binding result [15] | EC50 (read off the curve) [16] | EC50 (read off the curve) [17] | EC50 (read off the curve) [18] |
| --- | --- | --- | --- | --- | --- | --- | --- | --- | --- | --- | --- | --- | --- | --- | --- | --- | --- | --- | --- | --- |
| B1 | 0.99 nM | 0.71 nM | 1.2 mol mAb / mol wild type | binds | binds | binds | 2 mol staphylocoagulase/mol GMA-2105 | 1.6 mol BODIPY-SC/mol GMA-2105 | no binding (tested: 10 µg/mL (from the text)) | no binding (tested: 10 µg/mL (from the text)) | 1.09 nM | 0.99 mol mAb / mol probe | 2 nM | 4 nM | binds | – | – | – | – | – |
| B2 | – | 0.75 nM | 1.35 mol mAb / mol wild type | – | – | – | – | – | – | – | 0.79 nM | 0.94 mol mAb / mol probe | – | – | – | 2 mol staphylocoagulase/mol chimeric antibody | – | – | – | – |
| B3 | – | – | – | – | – | – | – | – | – | – | – | – | – | – | – | – | binds | ~0.1 µg/mL | ~0.1 µg/mL | ~0.1 µg/mL |
